This passage reports fold (binding to normal human IgG against humanized anti-CD20 IgG) results from patent publication US20070015228A1.

The target of the assay is normal human IgG (Zymed) (human). The assay is described as follows: ELISA, 8A3 coated on plate, anti-human IgG Fc-HRP detection. For orientation: In an ELISA, binding on a coated surface is turned into a signal by an enzyme label.

B1: anti-idiotypic antibody 8A3 (antibody, V domains shown)
VH: QVQLQQSGAELAKPGASVKMSCKASGYNFTTYWMHWVKQRPGQGLEWIGYINPSTDYTEYNQKFKYKATLTADKSSSTAYIQLSSLTSEDSAVYYCARWWDYDWYFDVWGAGTPLTVSS
VL: DIVMTQSQEFMSTSVGDRVSVTCKASQTVDTNVAWYQQKLGQSPKPLIYSASYRCSGVPDRFTGSGSRTDFTLTITNVQSEDLAEYFCQQYHSFPWTFGGGTKVEIKR
For the molecule B1, the fold (binding to normal human IgG against humanized anti-CD20 IgG) is less than 50000 fold.
